Reference: paper PMC4358367, “Structural basis of diverse membrane target recognitions by ankyrins” (eLife, 2014)
Where no end group is shown, it is not given here.

What was measured:
[1] = target: T1, AnkB_repeats (24 ANK repeats of human 220 kDa ankyrin-B, residues 28–873) (human, UniProt Q01484 28-873); assay: fluorescence polarisation; FITC-labeled peptide (~1 µM) titrated with AnkB_repeats WT or mutants; 25°C; 50 mM Tris pH 8.0, 100 mM NaCl, 1 mM DTT, 1 mM EDTA; one-site binding model; conditions: both partners purified
T1 construct: ankyrin-B (AnkB), human, 220 kDa isoform used as template, ANK repeats, residues 28-873; source: E. coli BL21 (DE3), purified
T1 sequence (looked up): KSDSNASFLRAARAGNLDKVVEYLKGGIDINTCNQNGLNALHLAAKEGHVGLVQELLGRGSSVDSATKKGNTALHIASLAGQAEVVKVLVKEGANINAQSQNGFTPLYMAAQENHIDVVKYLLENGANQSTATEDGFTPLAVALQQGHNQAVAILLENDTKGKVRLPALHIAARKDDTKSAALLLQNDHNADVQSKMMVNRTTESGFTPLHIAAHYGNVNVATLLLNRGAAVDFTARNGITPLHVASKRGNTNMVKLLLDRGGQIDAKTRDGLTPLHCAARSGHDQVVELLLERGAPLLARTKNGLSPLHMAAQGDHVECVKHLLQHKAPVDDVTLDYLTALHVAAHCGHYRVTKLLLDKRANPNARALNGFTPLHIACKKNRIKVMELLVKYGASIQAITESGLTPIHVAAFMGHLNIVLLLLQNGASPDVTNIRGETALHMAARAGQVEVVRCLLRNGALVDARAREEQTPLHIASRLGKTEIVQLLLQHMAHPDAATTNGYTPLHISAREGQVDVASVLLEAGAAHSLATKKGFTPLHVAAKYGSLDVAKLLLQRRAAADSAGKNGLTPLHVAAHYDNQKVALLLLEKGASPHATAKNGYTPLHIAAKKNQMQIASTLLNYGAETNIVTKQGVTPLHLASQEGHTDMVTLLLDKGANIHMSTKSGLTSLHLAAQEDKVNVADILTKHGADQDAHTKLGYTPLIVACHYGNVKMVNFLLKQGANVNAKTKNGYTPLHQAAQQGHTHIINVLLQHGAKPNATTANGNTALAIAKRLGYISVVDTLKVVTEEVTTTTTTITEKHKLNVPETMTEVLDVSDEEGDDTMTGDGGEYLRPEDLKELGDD

[2] = target: T2, AnkB_repeats site 2 mutant 'IL' (Ile267 and Leu300 to Gln) (human, UniProt Q01484 28-873, Ile267 substituted with Gln | Leu300 substituted with Gln); assay: FP
T2 sequence: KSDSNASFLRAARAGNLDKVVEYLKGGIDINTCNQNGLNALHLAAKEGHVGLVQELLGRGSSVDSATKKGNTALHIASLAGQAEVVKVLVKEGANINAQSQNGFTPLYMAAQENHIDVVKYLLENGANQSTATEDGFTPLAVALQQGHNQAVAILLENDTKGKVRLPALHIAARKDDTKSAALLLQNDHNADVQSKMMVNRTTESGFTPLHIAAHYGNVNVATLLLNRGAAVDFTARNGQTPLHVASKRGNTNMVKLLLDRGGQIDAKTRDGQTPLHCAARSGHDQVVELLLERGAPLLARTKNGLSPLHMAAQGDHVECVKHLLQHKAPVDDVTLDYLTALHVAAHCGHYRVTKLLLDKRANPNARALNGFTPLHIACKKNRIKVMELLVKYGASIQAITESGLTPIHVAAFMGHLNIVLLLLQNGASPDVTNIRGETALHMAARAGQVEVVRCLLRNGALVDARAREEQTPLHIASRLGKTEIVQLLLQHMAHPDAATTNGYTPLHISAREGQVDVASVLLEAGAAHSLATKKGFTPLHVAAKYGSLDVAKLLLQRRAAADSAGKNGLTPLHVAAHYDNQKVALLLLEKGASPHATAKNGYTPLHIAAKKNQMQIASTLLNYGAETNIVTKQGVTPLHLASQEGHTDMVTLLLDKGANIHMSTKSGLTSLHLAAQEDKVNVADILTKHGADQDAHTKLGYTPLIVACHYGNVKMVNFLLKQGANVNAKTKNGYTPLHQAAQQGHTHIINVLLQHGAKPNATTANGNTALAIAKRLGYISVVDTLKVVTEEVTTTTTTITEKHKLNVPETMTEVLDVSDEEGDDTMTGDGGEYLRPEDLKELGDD

[3] = target: T3, AnkB_repeats (24 ANK repeats of human 220 kDa ankyrin-B, residues 28–873) (human, UniProt Q01484 28-873); assay: FP
T3 chain: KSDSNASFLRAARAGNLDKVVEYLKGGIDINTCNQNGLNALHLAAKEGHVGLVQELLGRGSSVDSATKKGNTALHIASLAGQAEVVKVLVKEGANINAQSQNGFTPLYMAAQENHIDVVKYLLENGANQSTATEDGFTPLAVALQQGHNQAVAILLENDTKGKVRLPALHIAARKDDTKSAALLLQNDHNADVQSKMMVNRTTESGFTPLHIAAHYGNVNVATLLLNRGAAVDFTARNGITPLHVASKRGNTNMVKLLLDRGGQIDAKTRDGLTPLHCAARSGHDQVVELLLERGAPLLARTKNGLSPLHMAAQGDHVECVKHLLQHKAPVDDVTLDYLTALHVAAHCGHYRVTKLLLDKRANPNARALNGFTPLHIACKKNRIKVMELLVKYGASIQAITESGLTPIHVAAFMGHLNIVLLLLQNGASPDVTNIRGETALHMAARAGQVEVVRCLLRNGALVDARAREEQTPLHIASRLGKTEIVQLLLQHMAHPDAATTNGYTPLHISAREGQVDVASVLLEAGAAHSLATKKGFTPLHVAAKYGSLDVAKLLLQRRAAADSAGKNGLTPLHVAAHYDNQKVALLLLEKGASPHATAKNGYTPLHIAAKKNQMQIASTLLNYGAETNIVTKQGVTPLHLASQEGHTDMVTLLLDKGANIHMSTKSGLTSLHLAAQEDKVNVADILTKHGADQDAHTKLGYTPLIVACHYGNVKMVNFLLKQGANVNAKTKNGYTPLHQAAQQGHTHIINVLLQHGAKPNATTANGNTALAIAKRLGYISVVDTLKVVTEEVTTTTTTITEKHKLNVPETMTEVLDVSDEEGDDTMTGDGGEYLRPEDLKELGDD

[4] = target: T4, AnkB_repeats site 1 mutant 'FF' (Phe131 and Phe164 to Gln) (human, UniProt Q01484 28-873, Phe131 substituted with Gln | Phe164 substituted with Gln); assay: FP
T4 sequence: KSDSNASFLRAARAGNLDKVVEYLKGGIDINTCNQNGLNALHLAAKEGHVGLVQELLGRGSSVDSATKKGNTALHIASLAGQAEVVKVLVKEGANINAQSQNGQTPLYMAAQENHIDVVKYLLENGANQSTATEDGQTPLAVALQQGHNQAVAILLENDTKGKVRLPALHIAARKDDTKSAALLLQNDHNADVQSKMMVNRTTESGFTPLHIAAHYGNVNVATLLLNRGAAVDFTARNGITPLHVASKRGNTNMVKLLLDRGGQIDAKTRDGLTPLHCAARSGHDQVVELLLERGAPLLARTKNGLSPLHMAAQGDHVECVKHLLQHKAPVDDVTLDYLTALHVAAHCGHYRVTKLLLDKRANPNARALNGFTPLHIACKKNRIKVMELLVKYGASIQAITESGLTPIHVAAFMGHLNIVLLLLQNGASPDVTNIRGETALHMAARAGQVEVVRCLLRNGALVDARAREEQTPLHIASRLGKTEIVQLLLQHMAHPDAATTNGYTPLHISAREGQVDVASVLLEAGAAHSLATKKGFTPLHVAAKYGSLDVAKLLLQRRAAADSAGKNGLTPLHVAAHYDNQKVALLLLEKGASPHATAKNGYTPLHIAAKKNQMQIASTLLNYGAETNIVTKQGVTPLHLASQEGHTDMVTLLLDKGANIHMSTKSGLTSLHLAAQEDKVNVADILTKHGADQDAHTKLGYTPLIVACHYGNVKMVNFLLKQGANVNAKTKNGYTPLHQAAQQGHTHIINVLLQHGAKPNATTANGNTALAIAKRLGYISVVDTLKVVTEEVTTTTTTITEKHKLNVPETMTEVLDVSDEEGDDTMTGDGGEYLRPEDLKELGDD

B1: Cav1.3 peptide (mouse Cav1.3 residues 2134–2166), FITC-labeled (peptide, UniProt Q99246-4 2134-2166, looked up)
peptide: ELQDFGPGYSDEEPDPGREEEDLADEMICITTL
modifications: also: FITC label (position not given here)
notes: voltage-gated calcium channel Cav1.3, mouse, residues 2134-2166; also called voltage-gated calcium channel Cav1.3 peptide; source: synthetic peptide (commercially synthesized)
B1 was tested, and the binding result [1] was “binds”, the Kd [2] was 8.2 µM and the Kd [3] was 3.3 µM. For the same binder, the Kd [4] was 3.3 µM.
